Results on one molecule are retold here after paper doi:10.1101/2022.05.01.490205 (bioRxiv, 2022).

This assay addresses NRR-containing SynNotch receptor (Homo sapiens, UniProt P46531, chimera). As to the kind of experiment: immunostaining of cells or tissue.

Sequence of NRR-containing SynNotch receptor (P46531 whole entry, looked up, change not shown): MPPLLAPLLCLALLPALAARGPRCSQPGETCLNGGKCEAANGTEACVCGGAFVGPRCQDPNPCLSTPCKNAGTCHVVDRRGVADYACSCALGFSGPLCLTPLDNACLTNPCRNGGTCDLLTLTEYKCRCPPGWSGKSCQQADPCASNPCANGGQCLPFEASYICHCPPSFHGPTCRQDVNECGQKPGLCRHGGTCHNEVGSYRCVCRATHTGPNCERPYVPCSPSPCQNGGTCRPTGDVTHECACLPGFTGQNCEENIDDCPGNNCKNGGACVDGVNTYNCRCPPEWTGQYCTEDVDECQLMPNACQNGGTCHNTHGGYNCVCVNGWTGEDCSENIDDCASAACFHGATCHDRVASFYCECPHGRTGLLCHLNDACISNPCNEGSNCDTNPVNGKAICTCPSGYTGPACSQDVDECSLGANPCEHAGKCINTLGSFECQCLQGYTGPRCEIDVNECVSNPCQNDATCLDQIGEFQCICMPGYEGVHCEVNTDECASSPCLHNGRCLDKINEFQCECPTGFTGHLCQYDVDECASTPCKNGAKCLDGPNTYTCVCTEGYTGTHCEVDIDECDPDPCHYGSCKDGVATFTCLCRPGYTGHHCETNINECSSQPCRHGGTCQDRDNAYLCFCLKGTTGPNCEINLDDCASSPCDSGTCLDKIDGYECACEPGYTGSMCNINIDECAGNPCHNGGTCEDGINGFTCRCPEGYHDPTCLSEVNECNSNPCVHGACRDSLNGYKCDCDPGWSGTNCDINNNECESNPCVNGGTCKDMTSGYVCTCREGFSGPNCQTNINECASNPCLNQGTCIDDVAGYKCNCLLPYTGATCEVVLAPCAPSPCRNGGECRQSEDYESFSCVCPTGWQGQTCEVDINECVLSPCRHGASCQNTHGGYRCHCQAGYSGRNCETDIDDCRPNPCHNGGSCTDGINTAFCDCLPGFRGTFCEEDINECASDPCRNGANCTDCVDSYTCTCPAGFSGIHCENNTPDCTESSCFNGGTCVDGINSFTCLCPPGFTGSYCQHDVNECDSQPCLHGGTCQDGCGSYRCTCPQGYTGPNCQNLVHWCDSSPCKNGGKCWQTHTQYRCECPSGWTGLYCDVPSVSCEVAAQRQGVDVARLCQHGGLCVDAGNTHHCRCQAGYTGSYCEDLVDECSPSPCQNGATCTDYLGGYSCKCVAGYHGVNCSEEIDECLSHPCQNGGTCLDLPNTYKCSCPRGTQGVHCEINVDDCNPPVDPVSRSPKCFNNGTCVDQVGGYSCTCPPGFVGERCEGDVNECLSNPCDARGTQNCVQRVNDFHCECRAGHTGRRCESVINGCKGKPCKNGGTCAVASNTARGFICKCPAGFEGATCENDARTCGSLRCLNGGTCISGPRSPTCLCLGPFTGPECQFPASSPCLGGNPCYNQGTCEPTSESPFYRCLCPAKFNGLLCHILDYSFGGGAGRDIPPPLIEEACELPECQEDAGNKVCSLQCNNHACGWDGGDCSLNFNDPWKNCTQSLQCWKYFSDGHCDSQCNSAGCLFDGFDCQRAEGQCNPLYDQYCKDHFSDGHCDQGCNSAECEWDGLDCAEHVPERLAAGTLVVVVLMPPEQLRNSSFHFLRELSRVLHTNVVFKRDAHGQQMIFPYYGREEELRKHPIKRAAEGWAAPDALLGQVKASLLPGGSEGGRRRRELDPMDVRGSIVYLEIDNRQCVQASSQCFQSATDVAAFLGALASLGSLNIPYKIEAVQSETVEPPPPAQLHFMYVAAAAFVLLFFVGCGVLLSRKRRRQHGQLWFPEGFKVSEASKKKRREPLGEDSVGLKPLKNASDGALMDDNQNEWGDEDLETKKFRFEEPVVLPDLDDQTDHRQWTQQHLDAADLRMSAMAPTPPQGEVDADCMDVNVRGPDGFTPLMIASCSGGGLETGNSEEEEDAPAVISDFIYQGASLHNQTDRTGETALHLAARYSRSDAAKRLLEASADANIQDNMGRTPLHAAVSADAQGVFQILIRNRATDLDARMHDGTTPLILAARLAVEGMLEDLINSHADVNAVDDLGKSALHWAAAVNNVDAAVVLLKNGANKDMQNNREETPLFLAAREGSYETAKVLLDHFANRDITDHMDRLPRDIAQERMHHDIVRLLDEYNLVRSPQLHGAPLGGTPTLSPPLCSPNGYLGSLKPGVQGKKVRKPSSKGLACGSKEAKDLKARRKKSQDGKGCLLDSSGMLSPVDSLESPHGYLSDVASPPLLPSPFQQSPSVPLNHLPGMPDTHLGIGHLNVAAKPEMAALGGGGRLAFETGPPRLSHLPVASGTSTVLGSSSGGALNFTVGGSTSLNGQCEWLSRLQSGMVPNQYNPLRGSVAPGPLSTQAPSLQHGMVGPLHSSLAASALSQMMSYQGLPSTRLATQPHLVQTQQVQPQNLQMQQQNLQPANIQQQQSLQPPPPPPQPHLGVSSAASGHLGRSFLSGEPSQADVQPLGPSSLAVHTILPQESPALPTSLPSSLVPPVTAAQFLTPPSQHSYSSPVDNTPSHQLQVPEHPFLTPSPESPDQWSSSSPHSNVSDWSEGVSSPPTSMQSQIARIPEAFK

B1: soluble anti-NRR scFv (scFv, V domains shown)
VH: EVQLVESGGGLVQPGGSLRLSCAASGFTFSSYWIHWVRQAPGKGLEWVARINPPNRSNQYADSVKGRFTISADTSKNTAYLQMNSLRAEDTAVYYCARGSGFRWVMDYWGQGTLVTVSS
VL: DIQMTQSPSSLSASVGDRVTITCRASQDVSTAVAWYQQKPGKAPKLLIYSASFLYSGVPSRFSGSGSGTDFTLTISSLQPEDFATYYCQQFYTTPSTFGQGTKVEIK
For the molecule B1, the binding result is “binds”.
